The term Kd denotes the free concentration of one partner at which half of the binding sites on the other are occupied at equilibrium, for simple one-to-one binding. A high value points to weaker binding.

This is an account of results in paper PMC10786891, “Massively parallel profiling of RNA-targeting CRISPR-Cas13d”.

First the molecules themselves.
B1: target 1 insG 3' of 8 (mixed)
RNA 1: CACCCGUGCAAAAAUGCAGGGGUCUAAAACUGAGCGGAUAACCUCUCUAUGG
RNA 2: GGGAAUGGAUCCACAUCUACGAAUUCGUACCAUAGAGAGGUUAUGCCGCUCACCGAGAUCGGAAGAGCACACGU
B2: target 1 insU 3' of 15,insU 3' of 1 (mixed)
RNA 1: CACCCGUGCAAAAAUGCAGGGGUCUAAAACUGAGCGGAUAACCUCUCUAUGG
RNA 2: GGGAAUGGAUCCACAUCUACGAAUUCGUACCAUAGAGUAGGUUAUCCGCUCAUCCGAGAUCGGAAGAGCACACGU
B3: target 1 insG 3' of 10,insG 3' of 2 (mixed)
RNA 1: CACCCGUGCAAAAAUGCAGGGGUCUAAAACUGAGCGGAUAACCUCUCUAUGG
RNA 2: GGGAAUGGAUCCACAUCUACGAAUUCGUACCAUAGAGAGGUUGAUCCGCUCGACCGAGAUCGGAAGAGCACACGU
B4: target 1 insU 3' of 15,insA 3' of 2 (mixed)
RNA 1: CACCCGUGCAAAAAUGCAGGGGUCUAAAACUGAGCGGAUAACCUCUCUAUGG
RNA 2: GGGAAUGGAUCCACAUCUACGAAUUCGUACCAUAGAGUAGGUUAUCCGCUCAACCGAGAUCGGAAGAGCACACGU
B5: target 1 U8C,U11C (mixed)
RNA 1: CACCCGUGCAAAAAUGCAGGGGUCUAAAACUGAGCGGAUAACCUCUCUAUGG
RNA 2: GGGAAUGGAUCCACAUCUACGAAUUCGUACCAUAGAGAGGCUACCCGCUCACCGAGAUCGGAAGAGCACACGU
B6: target 1 insU 3' of 15,insC 3' of 1 (mixed)
RNA 1: CACCCGUGCAAAAAUGCAGGGGUCUAAAACUGAGCGGAUAACCUCUCUAUGG
RNA 2: GGGAAUGGAUCCACAUCUACGAAUUCGUACCAUAGAGUAGGUUAUCCGCUCACCCGAGAUCGGAAGAGCACACGU
B7: target 1 insC 3' of 16,insG 3' of 10 (mixed)
RNA 1: CACCCGUGCAAAAAUGCAGGGGUCUAAAACUGAGCGGAUAACCUCUCUAUGG
RNA 2: GGGAAUGGAUCCACAUCUACGAAUUCGUACCAUAGACGAGGUUGAUCCGCUCACCGAGAUCGGAAGAGCACACGU
B8: target 1 insA 3' of 21,insG 3' of 21 (mixed)
RNA 1: CACCCGUGCAAAAAUGCAGGGGUCUAAAACUGAGCGGAUAACCUCUCUAUGG
RNA 2: GGGAAUGGAUCCACAUCUACGAAUUCGUACCAGAUAGAGAGGUUAUCCGCUCACCGAGAUCGGAAGAGCACACGU
B9: target 1 insG 3' of 6,insU 3' of 4 (mixed)
RNA 1: CACCCGUGCAAAAAUGCAGGGGUCUAAAACUGAGCGGAUAACCUCUCUAUGG
RNA 2: GGGAAUGGAUCCACAUCUACGAAUUCGUACCAUAGAGAGGUUAUCCGGCUUCACCGAGAUCGGAAGAGCACACGU
B10: target 1 U11G,G13A (mixed)
RNA 1: CACCCGUGCAAAAAUGCAGGGGUCUAAAACUGAGCGGAUAACCUCUCUAUGG
RNA 2: GGGAAUGGAUCCACAUCUACGAAUUCGUACCAUAGAGAAGGUAUCCGCUCACCGAGAUCGGAAGAGCACACGU
B11: target 1 U8C,A9G (mixed)
RNA 1: CACCCGUGCAAAAAUGCAGGGGUCUAAAACUGAGCGGAUAACCUCUCUAUGG
RNA 2: GGGAAUGGAUCCACAUCUACGAAUUCGUACCAUAGAGAGGUUGCCCGCUCACCGAGAUCGGAAGAGCACACGU
B12: target 1 insU 3' of 15,insG 3' of 1 (mixed)
RNA 1: CACCCGUGCAAAAAUGCAGGGGUCUAAAACUGAGCGGAUAACCUCUCUAUGG
RNA 2: GGGAAUGGAUCCACAUCUACGAAUUCGUACCAUAGAGUAGGUUAUCCGCUCAGCCGAGAUCGGAAGAGCACACGU
B13: target 1 U3C,G13A (mixed)
RNA 1: CACCCGUGCAAAAAUGCAGGGGUCUAAAACUGAGCGGAUAACCUCUCUAUGG
RNA 2: GGGAAUGGAUCCACAUCUACGAAUUCGUACCAUAGAGAAGUUAUCCGCCCACCGAGAUCGGAAGAGCACACGU
B14: target 1 G12U,A14G (mixed)
RNA 1: CACCCGUGCAAAAAUGCAGGGGUCUAAAACUGAGCGGAUAACCUCUCUAUGG
RNA 2: GGGAAUGGAUCCACAUCUACGAAUUCGUACCAUAGAGGGUUUAUCCGCUCACCGAGAUCGGAAGAGCACACGU
B15: target 1 insC 3' of 13,insU 3' of 7 (mixed)
RNA 1: CACCCGUGCAAAAAUGCAGGGGUCUAAAACUGAGCGGAUAACCUCUCUAUGG
RNA 2: GGGAAUGGAUCCACAUCUACGAAUUCGUACCAUAGAGAGCGUUAUCUCGCUCACCGAGAUCGGAAGAGCACACGU
B16: target 1 U8C,A16G (mixed)
RNA 1: CACCCGUGCAAAAAUGCAGGGGUCUAAAACUGAGCGGAUAACCUCUCUAUGG
RNA 2: GGGAAUGGAUCCACAUCUACGAAUUCGUACCAUAGGGAGGUUACCCGCUCACCGAGAUCGGAAGAGCACACGU
B17: target 1 insC 3' of 11,insC 3' of 8 (mixed)
RNA 1: CACCCGUGCAAAAAUGCAGGGGUCUAAAACUGAGCGGAUAACCUCUCUAUGG
RNA 2: GGGAAUGGAUCCACAUCUACGAAUUCGUACCAUAGAGAGGUCUAUCCCGCUCACCGAGAUCGGAAGAGCACACGU
B18: target 1 insA 3' of 13,insU 3' of 6 (mixed)
RNA 1: CACCCGUGCAAAAAUGCAGGGGUCUAAAACUGAGCGGAUAACCUCUCUAUGG
RNA 2: GGGAAUGGAUCCACAUCUACGAAUUCGUACCAUAGAGAGAGUUAUCCUGCUCACCGAGAUCGGAAGAGCACACGU
B19: target 1 insC 3' of 11,insG 3' of 6 (mixed)
RNA 1: CACCCGUGCAAAAAUGCAGGGGUCUAAAACUGAGCGGAUAACCUCUCUAUGG
RNA 2: GGGAAUGGAUCCACAUCUACGAAUUCGUACCAUAGAGAGGUCUAUCCGGCUCACCGAGAUCGGAAGAGCACACGU
B20: target 1 insU 3' of 20,insA 3' of 3 (mixed)
RNA 1: CACCCGUGCAAAAAUGCAGGGGUCUAAAACUGAGCGGAUAACCUCUCUAUGG
RNA 2: GGGAAUGGAUCCACAUCUACGAAUUCGUACCAUUAGAGAGGUUAUCCGCUACACCGAGAUCGGAAGAGCACACGU
B21: target 1 insG 3' of 9,insU 3' of 2 (mixed)
RNA 1: CACCCGUGCAAAAAUGCAGGGGUCUAAAACUGAGCGGAUAACCUCUCUAUGG
RNA 2: GGGAAUGGAUCCACAUCUACGAAUUCGUACCAUAGAGAGGUUAGUCCGCUCUACCGAGAUCGGAAGAGCACACGU
B22: target 1 insA 3' of 6,insU 3' of 2 (mixed)
RNA 1: CACCCGUGCAAAAAUGCAGGGGUCUAAAACUGAGCGGAUAACCUCUCUAUGG
RNA 2: GGGAAUGGAUCCACAUCUACGAAUUCGUACCAUAGAGAGGUUAUCCAGCUCUACCGAGAUCGGAAGAGCACACGU
B23: target 1 insG 3' of 18,insC 3' of 15 (mixed)
RNA 1: CACCCGUGCAAAAAUGCAGGGGUCUAAAACUGAGCGGAUAACCUCUCUAUGG
RNA 2: GGGAAUGGAUCCACAUCUACGAAUUCGUACCAUAGGAGCAGGUUAUCCGCUCACCGAGAUCGGAAGAGCACACGU
B24: target 1 insU 3' of 13,insU 3' of 5 (mixed)
RNA 1: CACCCGUGCAAAAAUGCAGGGGUCUAAAACUGAGCGGAUAACCUCUCUAUGG
RNA 2: GGGAAUGGAUCCACAUCUACGAAUUCGUACCAUAGAGAGUGUUAUCCGUCUCACCGAGAUCGGAAGAGCACACGU
B25: target 1 A14U,G15C (mixed)
RNA 1: CACCCGUGCAAAAAUGCAGGGGUCUAAAACUGAGCGGAUAACCUCUCUAUGG
RNA 2: GGGAAUGGAUCCACAUCUACGAAUUCGUACCAUAGACUGGUUAUCCGCUCACCGAGAUCGGAAGAGCACACGU
B26: target 1 insC 3' of 9,insG 3' of 3 (mixed)
RNA 1: CACCCGUGCAAAAAUGCAGGGGUCUAAAACUGAGCGGAUAACCUCUCUAUGG
RNA 2: GGGAAUGGAUCCACAUCUACGAAUUCGUACCAUAGAGAGGUUACUCCGCUGCACCGAGAUCGGAAGAGCACACGU
B27: target 1 U3G,C6G (mixed)
RNA 1: CACCCGUGCAAAAAUGCAGGGGUCUAAAACUGAGCGGAUAACCUCUCUAUGG
RNA 2: GGGAAUGGAUCCACAUCUACGAAUUCGUACCAUAGAGAGGUUAUCGGCGCACCGAGAUCGGAAGAGCACACGU

This series concerns the target T1, EsCas13d, nuclease-dead (Eubacterium siraeum, UniProt B0MS50, R295A;H300A;R849A;H854A).
T1 sequence: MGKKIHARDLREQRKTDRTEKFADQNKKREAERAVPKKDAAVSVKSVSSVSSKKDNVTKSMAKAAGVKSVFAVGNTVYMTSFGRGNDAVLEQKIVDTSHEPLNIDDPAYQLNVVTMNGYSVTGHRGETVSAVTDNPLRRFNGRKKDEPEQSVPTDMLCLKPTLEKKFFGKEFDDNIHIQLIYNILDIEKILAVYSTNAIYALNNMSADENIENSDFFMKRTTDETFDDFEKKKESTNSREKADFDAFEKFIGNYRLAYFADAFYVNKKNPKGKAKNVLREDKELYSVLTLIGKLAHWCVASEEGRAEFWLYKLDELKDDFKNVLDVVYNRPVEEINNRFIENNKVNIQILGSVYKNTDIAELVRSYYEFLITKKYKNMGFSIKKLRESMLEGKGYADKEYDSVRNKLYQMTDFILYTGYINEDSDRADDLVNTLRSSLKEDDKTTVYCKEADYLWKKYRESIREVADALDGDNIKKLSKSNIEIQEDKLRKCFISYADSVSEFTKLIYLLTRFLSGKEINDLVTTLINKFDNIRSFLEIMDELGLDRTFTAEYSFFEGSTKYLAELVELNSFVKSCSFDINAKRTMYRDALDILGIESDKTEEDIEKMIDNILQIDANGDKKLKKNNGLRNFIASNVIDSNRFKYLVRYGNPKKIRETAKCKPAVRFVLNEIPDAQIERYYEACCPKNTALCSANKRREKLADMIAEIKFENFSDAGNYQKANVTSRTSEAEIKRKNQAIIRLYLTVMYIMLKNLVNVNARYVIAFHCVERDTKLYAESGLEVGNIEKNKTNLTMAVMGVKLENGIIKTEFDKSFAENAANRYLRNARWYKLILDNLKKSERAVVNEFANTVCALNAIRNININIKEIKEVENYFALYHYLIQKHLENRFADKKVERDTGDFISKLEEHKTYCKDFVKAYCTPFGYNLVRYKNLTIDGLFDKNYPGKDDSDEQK
Kind of series: crRNA (strand 1, pre-loaded); Mg2+; 40 mM Tris-HCl pH 7.5, 150 mM NaCl, 6 mM MgCl2, 1 mM DTT, 0.1% Tween-20, 0.2 mg/ml BSA; 25 C; 10 min per concentration, then washed. The note with it: tags: His6-TwinStrep-SUMO cleaved; N-terminal SNAP kept (SNAP-Surface 488); label: 3' end held by stalled T7 RNA polymerase.
B1 yielded a Kd of 12.9 ± 0.5 nM. In the case of B2, the affinity, expressed as Kd, was 11.2 ± 0.8 nM. The molecule B3 yielded a Kd of 34.6 ± 3.1 nM. B4 returned a Kd of 10.9 ± 1.1 nM. Molecule B5 came in with a Kd of 12.2 ± 0.6 nM. In turn, B6 returned a dissociation constant Kd of 8.8 ± 0.5 nM. Then B7, with 79 ± 15 nM; and B8, with 40 ± 5 nM; and B9, with 10.6 ± 0.5 nM. In the case of B10, binding was characterised by a dissociation constant (Kd) of 16.6 ± 1.6 nM. The molecule B11 yielded a Kd of 13.4 ± 0.6 nM.

For B12, the Kd was 11.6 ± 0.7 nM. The same measure for B13: 37 ± 8 nM; for B14: 32.7 ± 3 nM. B15 had a dissociation constant Kd of 25.7 ± 1.8 nM. For B16, binding was put at a Kd of 54 ± 5 nM. Then B17, with roughly 70 nM; and B18, with 4.15 ± 0.3 nM; and B19, with 44 ± 8 nM.

In the case of B20, binding was characterised by a dissociation constant (Kd) of 11.3 ± 1.1 nM. Molecule B21 displayed a Kd of 18.9 ± 1.2 nM. B22 had a dissociation constant (Kd) of 21 ± 4 nM. The same measure for B23: 62 ± 11 nM. The molecule B24 came in with a Kd of 22.4 ± 3.3 nM. B25 yielded a Kd of roughly 80 nM. As for B26, the dissociation constant Kd was found to be 7.3 ± 0.5 nM.

As to B27, the affinity, expressed as Kd, was 4.32 ± 0.23 nM.
